T1: mouse NaPi2b (mouse, UniProt Q9DBP0 1-697)
T1 construct: also called Ms NaPi2b; CL #13476
T1 sequence: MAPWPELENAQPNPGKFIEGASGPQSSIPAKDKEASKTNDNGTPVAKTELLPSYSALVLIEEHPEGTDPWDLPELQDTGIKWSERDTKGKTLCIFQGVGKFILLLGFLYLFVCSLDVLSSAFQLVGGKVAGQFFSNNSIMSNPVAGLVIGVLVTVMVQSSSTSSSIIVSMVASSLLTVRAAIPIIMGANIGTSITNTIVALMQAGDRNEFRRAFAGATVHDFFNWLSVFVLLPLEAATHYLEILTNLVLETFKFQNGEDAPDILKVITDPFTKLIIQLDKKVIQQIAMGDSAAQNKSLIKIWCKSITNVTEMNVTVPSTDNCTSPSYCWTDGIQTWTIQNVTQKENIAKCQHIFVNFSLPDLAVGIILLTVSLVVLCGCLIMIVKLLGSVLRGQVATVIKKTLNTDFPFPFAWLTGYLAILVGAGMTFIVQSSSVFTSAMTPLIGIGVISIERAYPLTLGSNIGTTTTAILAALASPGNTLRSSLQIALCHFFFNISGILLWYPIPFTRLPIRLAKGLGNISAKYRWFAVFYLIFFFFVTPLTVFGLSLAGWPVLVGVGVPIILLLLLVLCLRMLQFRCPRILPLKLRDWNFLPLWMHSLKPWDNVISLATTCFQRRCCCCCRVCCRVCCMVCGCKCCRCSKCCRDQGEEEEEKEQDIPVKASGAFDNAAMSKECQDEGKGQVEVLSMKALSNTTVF

T2: human sodium-dependent phosphate transporter 2B (NaPi2b) (human, UniProt O95436 1-690)
T2 construct: UniProt ID is given as 095436 [sic]; also called hNaPi2b; Hu NaPi2b
T2 sequence: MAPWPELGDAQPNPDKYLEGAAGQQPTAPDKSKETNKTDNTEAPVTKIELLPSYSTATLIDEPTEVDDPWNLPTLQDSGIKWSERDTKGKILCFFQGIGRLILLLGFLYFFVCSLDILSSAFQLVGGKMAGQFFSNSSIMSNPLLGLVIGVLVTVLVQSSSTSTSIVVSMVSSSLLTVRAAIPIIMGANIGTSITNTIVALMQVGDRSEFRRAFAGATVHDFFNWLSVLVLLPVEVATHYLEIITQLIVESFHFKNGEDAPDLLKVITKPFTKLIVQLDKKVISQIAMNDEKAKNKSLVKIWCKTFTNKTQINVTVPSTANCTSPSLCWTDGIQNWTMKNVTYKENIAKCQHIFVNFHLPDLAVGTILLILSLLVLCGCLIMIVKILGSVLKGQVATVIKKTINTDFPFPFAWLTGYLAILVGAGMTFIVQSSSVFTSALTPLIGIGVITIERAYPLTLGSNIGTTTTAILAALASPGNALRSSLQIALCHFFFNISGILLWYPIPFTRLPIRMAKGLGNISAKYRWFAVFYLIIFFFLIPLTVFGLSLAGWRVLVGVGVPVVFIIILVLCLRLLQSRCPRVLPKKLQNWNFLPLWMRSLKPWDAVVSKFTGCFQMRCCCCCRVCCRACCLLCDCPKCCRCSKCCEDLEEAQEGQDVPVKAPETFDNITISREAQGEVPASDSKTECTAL

T3: cynomolgus monkey NaPi2b (cynomolgus monkey, UniProt O95436 1-690 (human entry))
T3 construct: also called Cyno NaPi2b; Cy NaPi2b
T3 chain: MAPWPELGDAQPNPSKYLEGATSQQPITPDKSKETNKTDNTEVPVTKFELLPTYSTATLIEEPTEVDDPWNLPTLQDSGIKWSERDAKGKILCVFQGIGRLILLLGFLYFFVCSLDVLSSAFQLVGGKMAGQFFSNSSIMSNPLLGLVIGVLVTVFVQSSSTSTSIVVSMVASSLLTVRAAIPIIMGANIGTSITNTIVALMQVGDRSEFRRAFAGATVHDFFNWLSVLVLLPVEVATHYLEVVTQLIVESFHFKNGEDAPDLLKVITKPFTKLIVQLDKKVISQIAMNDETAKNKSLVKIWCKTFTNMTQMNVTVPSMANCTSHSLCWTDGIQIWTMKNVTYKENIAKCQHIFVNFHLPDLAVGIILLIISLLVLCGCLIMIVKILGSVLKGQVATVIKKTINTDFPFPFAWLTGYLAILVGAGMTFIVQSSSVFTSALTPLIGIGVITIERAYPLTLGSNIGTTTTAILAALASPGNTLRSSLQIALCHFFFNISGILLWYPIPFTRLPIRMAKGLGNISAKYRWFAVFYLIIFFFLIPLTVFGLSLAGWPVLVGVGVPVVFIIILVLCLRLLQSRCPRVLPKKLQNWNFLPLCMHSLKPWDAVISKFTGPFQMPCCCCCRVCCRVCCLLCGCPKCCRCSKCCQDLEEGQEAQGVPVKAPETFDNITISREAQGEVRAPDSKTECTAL


What was measured:
[1] = target: T1, mouse NaPi2b; test: flow cytometry on HEK293-6e cells transfected with mouse NaPi2b, 24 h at 4 C, anti-human IgG Fc AF647
Description: (§1) Following transfection, cells were seeded at 50,000 cells/well in conical-bottom 96-well plates and treated with test antibody or antibody-drug conjugate for 24 hours at 4° C. to prevent internalization. […] Following incubation and washing, fluorescence was detected by flow cytometry on a BD LSRFortessa™ Cell Analyzer (BD Biosciences, Franklin Lake, NJ) with 1,000 minimum events collected per well.

[2] = target: T2, human sodium-dependent phosphate …; test: flow cytometry on HEK293-6e cells transiently transfected with human NaPi2b, antibody 18-24 h at 4 C, anti-human IgG Fc AF647
Description: Briefly, HEK293-6e cells were transfected for ~24 hours to transiently express human NaPi2b, cynomolgus or mouse NaPi2b, at 1 μg of DNA per 1 million cells. Following transfection, 50,000 cells per well were seeded in V-bottom 96-well plates and incubated with 200 nM of primary antibody for 18-24 hours at 4° C. to prevent internalization. […] Following staining and washing, fluorescence was detected by flow cytometry on BD LSRFortessa™ Cell Analyzer (BD Biosciences, Franklin Lake, NJ) with 10,000 minimum events collected per well. The AF647/APC-A GeoMean (fluorescence signal geometric mean, proportional to anti-Human AF647 binding) was calculated for the live singlet cell population for each primary antibody using FlowJo™ v8 software (BD Biosciences, Franklin Lake, NJ). The Bmax and Kd of each primary antibody were calculated using GraphPad Prism Version 9 (GraphPad Software, San Diego, CA)

[3] = target: T2, human sodium-dependent phosphate …; test: cell-based or functional assay
[4] = target: T3, cynomolgus monkey NaPi2b; test: flow cytometry on HEK293-6e cells transfected with cynomolgus monkey NaPi2b, 24 h at 4 C, anti-human IgG Fc AF647
Description: as §1

Binder	binding result [1]	binding result [2]	Internalized Fluorescence Fold-Over Palivizumab, HCC-78, 5 hrs, 10 nM [3]	Internalized Fluorescence Fold-Over Palivizumab, HCC-78, 24 hrs, 10 nM [3]	Internalized Fluorescence Fold-Over Palivizumab, NCI-H441, 5 hrs, 10 nM [3]	Internalized Fluorescence Fold-Over Palivizumab, NCI-H441, 24 hrs, 10 nM [3]	EC50 (read off the curve) [2]	EC50 (read off the curve) [4]	EC50 (read off the curve) [1]
v22277 (palivizumab, anti-RSV negative control, heterodimeric Fc) (antibody, human IgG1, kappa, also called neg control) heavy 1: GQVTLRESGPALVKPTQTLTLTCTFSGFSLSTSGMSVGWIRQPPGKALEWLADIWWDDKKDYNPSLKSRLTISKDTSKNQVVLKVTNMDPADTATYYCARSMITNWYFDVWGAGTTVTVSSASTKGPSVFPLAPSSKSTSGGTAALGCLVKDYFPEPVTVSWNSGALTSGVHTFPAVLQSSGLYSLSSVVTVPSSSLGTQTYICNVNHKPSNTKVDKKVEPKSCDKTHTCPPCPAPELLGGPSVFLFPPKPKDTLMISRTPEVTCVVVDVSHEDPEVKFNWYVDGVEVHNAKTKPREEQYNSTYRVVSVLTVLHQDWLNGKEYKCKVSNKALPAPIEKTISKAKGQPREPQVYVYPPSRDELTKNQVSLTCLVKGFYPSDIAVEWESNGQPENNYKTTPPVLDSDGSFALVSKLTVDKSRWQQGNVFSCSVMHEALHNHYTQKSLSLSPG heavy 2: not shown light: GDIQMTQSPSTLSASVGDRVTITCKSQLSVGYMHWYQQKPGKAPKLLIYDTSKLASGVPSRFSGSGSGTEFTLTISSLQPDDFATYYCFQGSGYPFTFGGGTKLEIKRTVAAPSVFIFPPSDEQLKSGTASVVCLLNNFYPREAKVQWKVDNALQSGNSQESVTEQDSKDSTYSLSSTLTLSKADYEKHKVYACEVTHQGLSSPVTKSFNRGEC	no binding (tested: 200 nM)	no binding (tested: 200 nM)	1 fold	1 fold	1 fold	1 fold	–	–	–
v18993 (lifastuzumab), reference anti-NaPi2b antibody (antibody, human IgG1, kappa) heavy 1: GEVQLVESGGGLVQPGGSLRLSCAASGFSFSDFAMSWVRQAPGKGLEWVATIGRVAFHTYYPDSMKGRFTISRDNSKNTLYLQMNSLRAEDTAVYYCARHRGFDVGHFDFWGQGTLVTVSSASTKGPSVFPLAPSSKSTSGGTAALGCLVKDYFPEPVTVSWNSGALTSGVHTFPAVLQSSGLYSLSSVVTVPSSSLGTQTYICNVNHKPSNTKVDKKVEPKSCDKTHTCPPCPAPELLGGPSVFLFPPKPKDTLMISRTPEVTCVVVDVSHEDPEVKFNWYVDGVEVHNAKTKPREEQYNSTYRVVSVLTVLHQDWLNGKEYKCKVSNKALPAPIEKTISKAKGQPREPQVYVYPPSRDELTKNQVSLTCLVKGFYPSDIAVEWESNGQPENNYKTTPPVLDSDGSFALVSKLTVDKSRWQQGNVFSCSVMHEALHNHYTQKSLSLSPG heavy 2: not shown light: GDIQMTQSPSSLSASVGDRVTITCRSSETLVHSSGNTYLEWYQQKPGKAPKLLIYRVSNRFSGVPSRFSGSGSGTDFTLTISSLQPEDFATYYCFQGSFNPLTFGQGTKVEIKRTVAAPSVFIFPPSDEQLKSGTASVVCLLNNFYPREAKVQWKVDNALQSGNSQESVTEQDSKDSTYSLSSTLTLSKADYEKHKVYACEVTHQGLSSPVTKSFNRGEC	–	–	–	–	–	–	~1 nM	~5 nM	–
v38591 (humanized anti-NaPi2b antibody, wild-type Fc) (antibody, human IgG1, kappa, also called v38591 Wild-type; H1L2) heavy: not shown light: DVQMTQSPSSLSASVGDRVTITCRASQDVYSYLNWYQQKPGKAVKLLIYYTSRLQSGVPSRFSGSGSGTDYTLTISSLQPEDFATYYCQQYNIFPWTFGQGTKLEIKRTVAAPSVFIFPPSDEQLKSGTASVVCLLNNFYPREAKVQWKVDNALQSGNSQESVTEQDSKDSTYSLSSTLTLSKADYEKHKVYACEVTHQGLSSPVTKSFNRGEC	–	–	–	–	–	–	–	~0.3 nM	~0.3 nM
